Data from paper PMC4466810 (2015).

Target: T1, VEGF-A (VEGF165) (Homo sapiens, UniProt P15692)
T1 chain: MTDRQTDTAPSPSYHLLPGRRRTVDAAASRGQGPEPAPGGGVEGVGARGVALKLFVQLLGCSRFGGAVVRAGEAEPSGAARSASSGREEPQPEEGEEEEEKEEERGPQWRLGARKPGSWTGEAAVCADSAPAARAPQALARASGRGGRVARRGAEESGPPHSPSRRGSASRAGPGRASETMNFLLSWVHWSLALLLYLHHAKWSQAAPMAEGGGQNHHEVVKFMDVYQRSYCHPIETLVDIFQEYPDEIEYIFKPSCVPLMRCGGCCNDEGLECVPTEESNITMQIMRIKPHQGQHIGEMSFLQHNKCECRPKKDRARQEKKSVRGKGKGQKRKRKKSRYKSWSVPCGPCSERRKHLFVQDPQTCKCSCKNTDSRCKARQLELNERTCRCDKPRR
Experiment: equilibrium binding assay (ELISA of unbound blocker)

- Kd: 0.18 nM
B1: HB-002.1 (VEGFR1 D2-Fc fusion) 129-228 (protein)
chain: SDTGRPFVEMYSEIPEIIHMTEGRELVIPCRVTSPNITVTLKKFPLDTLIPDGKRIIWDSRKGFIISNATYKEIGLLTCEATVNGHLYKTNYLTHRQTNT
modifications: fused to human IgG1 Fc
